For the test, the target named is PTCH1-GFP (mouse) (UniProt Q61115). Description: cell surface binding of BOC-Fc proteins to COS7 cells expressing PTCH1-GFP, anti-Fc HRP.
Chain of UniProt Q61115 (Q61115 whole entry): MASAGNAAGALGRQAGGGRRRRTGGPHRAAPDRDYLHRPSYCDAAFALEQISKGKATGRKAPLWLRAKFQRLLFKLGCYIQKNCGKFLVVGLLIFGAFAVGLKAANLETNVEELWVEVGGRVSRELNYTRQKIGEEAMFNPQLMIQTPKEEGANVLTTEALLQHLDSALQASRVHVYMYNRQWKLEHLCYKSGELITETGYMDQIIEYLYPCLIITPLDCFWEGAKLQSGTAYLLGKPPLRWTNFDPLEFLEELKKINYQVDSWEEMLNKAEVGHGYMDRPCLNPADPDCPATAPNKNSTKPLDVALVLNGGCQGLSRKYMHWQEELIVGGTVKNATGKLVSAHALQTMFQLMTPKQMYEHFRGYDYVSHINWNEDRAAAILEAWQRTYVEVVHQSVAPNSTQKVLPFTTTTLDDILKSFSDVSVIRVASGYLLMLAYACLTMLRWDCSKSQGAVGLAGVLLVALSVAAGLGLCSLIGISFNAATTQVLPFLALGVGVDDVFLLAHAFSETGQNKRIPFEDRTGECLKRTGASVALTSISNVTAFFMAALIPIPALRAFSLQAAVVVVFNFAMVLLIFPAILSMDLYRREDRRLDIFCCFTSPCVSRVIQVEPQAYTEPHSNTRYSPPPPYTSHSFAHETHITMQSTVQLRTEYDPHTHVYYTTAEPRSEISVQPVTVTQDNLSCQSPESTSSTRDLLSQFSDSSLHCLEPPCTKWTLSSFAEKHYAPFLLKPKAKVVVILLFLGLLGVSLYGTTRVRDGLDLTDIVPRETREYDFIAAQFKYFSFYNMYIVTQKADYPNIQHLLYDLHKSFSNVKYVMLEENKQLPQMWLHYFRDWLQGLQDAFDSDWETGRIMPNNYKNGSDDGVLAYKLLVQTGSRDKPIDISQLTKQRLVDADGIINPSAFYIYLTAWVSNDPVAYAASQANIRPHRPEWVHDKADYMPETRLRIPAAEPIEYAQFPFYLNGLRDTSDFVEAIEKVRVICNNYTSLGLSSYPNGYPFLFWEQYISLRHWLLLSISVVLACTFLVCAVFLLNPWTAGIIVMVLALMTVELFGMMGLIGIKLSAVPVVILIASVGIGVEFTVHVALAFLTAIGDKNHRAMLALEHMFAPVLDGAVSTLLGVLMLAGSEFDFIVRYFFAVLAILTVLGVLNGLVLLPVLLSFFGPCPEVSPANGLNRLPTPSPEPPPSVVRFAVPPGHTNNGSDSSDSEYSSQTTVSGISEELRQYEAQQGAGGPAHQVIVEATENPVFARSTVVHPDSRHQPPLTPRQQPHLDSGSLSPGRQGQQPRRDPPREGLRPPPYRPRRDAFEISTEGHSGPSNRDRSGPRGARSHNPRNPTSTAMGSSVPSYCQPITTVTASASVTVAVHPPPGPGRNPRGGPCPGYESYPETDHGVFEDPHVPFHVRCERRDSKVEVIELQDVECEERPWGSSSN

“BOC-Fc construct containing the FNIIIa domain alone (Fc fusion)” returned a binding level relative to BOC ecto-Fc of 60%.
In turn, “BOC-Fc construct containing the FNIIIb domain alone (Fc fusion)” registered a binding level relative to BOC ecto-Fc of 60%.

These data come from patent US20140079713A1.
